From the supplement of paper PMC10724198
± gives the standard deviation of the averaged measurements.

Test system: Saccharomyces cerevisiae
Assay: protein stability index of tFT-peptide fusion (C-terminal peptide) (PSI (0-1 scale)); higher = more stable (slower turnover)
Conditions: genetic background: wild type; temperature: 30 C
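Further: PSI is a weighted mean of sequencing reads over stability bins, variants kept only with over 10 reads, mCherry proximal and sfGFP distal, peptide attached via GGGS linker.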

Sequence | protein stability index
LFPLAPRRLAPP | 0.628 ± 0.069
LFPLPHPLPVSL | 0.6146 ± 0.0053
LFPPPPPSPRCL | 0.637 ± 0.055
LFRPFATALFPL | 0.747 ± 0.066
LFRWLLRLVISH | 0.608 ± 0.021
LFSLPPPSPPPR | 0.694 ± 0.03
LFTPLLVPYPTP | 0.522 ± 0.0028
LFVYSSVALSSQ | 0.59301 ± 0.00049
LFYFFGKRPAHL | 0.781 ± 0.045
LGAHLSTAPPPP | 0.655 ± 0.022
LGDVRRENKQLP | 0.6981 ± 0.003
LGFVGVRSVRSG | 0.667 ± 0.059
LGGGGPSVREGE | 0.679 ± 0.05
LGGGGVGGVRGV | 0.6675 ± 0.0046
LGGLLLCLGLSG | 0.674 ± 0.058
LGGRGGACRRDR | 0.7 ± 0.019
LGHQFKGTILRV | 0.73 ± 0.059
LGKVAGLGAGRP | 0.719 ± 0.034
LGPFTEAVSRHC | 0.67 ± 0.021
LGQRFRLFVSFF | 0.468 ± 0.077
LGRAGMWTRRGL | 0.663 ± 0.034
LGRCRQTERETS | 0.649 ± 0.089
LGRGRWSVLVVR | 0.5287 ± 0.0014
LGSFLPLLPSPP | 0.674 ± 0.041
LGSGVQGEGRGW | 0.678 ± 0.042
LGTVPLLPPRSP | 0.713 ± 0.028

Sequence | protein stability index
LGVIHPSVYFCL | 0.5416 ± 0.0023
LGVMLLEGWRVM | 0.656 ± 0.018
LGVPGSGDGEWW | 0.592 ± 0.029
LGVVSCAVVGFV | 0.625 ± 0.041
LGWGGGGPLSGG | 0.7197 ± 0.0054
LGWWWVWSWGRG | 0.668 ± 0.04
LHGFYSKKAINR | 0.701 ± 0.031
LHGLSGRLLFDV | 0.574 ± 0.2
LHHPPAPPLPPP | 0.695 ± 0.018
LHLDTMPQEKNN | 0.668 ± 0.036
LHPAPPAAPTRP | 0.711 ± 0.016
LHPRPPLFLHPL | 0.692 ± 0.015
LHRFYVGQLVVN | 0.522 ± 0.0092
LHSNFGSSVFSL | 0.713 ± 0.012
LHSPWPFSAPGI | 0.855 ± 0.2
LIGKNNTSIQLK | 0.742 ± 0.16
LIIGYFSSRVCL | 0.61 ± 0.074
LILRPLPPPLPP | 0.5623 ± 0.0014
LIMLNNIENSSI | 0.678 ± 0.01
LIQHVTKLTPFF | 0.694 ± 0.012
LIRFFSSSRPGS | 0.671 ± 0.15
LIRPSAPSHRSP | 0.798 ± 0.025
LISFSGFSPFLW | 0.7678 ± 0.0027
LISISNINEGVI | 0.688 ± 0.037
LISPPAQLAFVP | 0.696 ± 0.016
LISRFFPSRSAP | 0.854 ± 0.021

Sequence | protein stability index
LIVSTAGVTQFS | 0.66 ± 0.012
LIWHTLSTVIPF | 0.657 ± 0.029
LKNKVDGKVSGK | 0.6014 ± 0.0045
LKPGYQGQHKED | 0.7 ± 0.029
LKPKLDFHIWDV | 0.67 ± 0.1
LKQKMKETGRRR | 0.666 ± 0.058
LKRSDFSFLEKV | 0.701 ± 0.075
LKSGAWFFRIGY | 0.66 ± 0.018
LKYETGTILRMT | 0.563 ± 0.013
LLAFLPPPPCPP | 0.709 ± 0.036
LLATCGAIHTFC | 0.637 ± 0.01
LLCFGGRGPLAD | 0.713 ± 0.028
LLCTSSGYWAWK | 0.699 ± 0.0087
LLFFRSPFSLVS | 0.6465 ± 0.0059
LLFLGSSLRDTF | 0.759 ± 0.0098
LLGGLHIPHPLR | 0.681 ± 0.052
LLGSFSLSMSSL | 0.717 ± 0.021
LLINTARWSEAG | 0.662 ± 0.049
LLLLDPPLPPPP | 0.684 ± 0.015
LLLLRSPPPTPP | 0.6722 ± 0.0021
LLLLSTCSPLLL | 0.618 ± 0.021
LLLPPRPPPSVP | 0.742 ± 0.15
LLLQLSPLLTSL | 0.646 ± 0.019
LLLSSPPFPALL | 0.638 ± 0.0074
LLPLPSPLPACP | 0.709 ± 0.02
LLPLTWTTVQGP | 0.694 ± 0.027

Sequence | protein stability index
LLPPPPVPTPDR | 0.659 ± 0.12
LLPPRPSSSPPS | 0.704 ± 0.026
LLPSLFLLPPSA | 0.743 ± 0.094
LLPSPRSSPPPS | 0.675 ± 0.091
LLQRFTTVPTLL | 0.616 ± 0.083
LLRLTGRRHVGG | 0.748 ± 0.2
LLRPLSPIDVLR | 0.702 ± 0.069
LLRPYYHILVPL | 0.695 ± 0.0024
LLRRFSLLPPPL | 0.667 ± 0.035
LLRSCLTLFARR | 0.668 ± 0.021
LLRVPPGPIFPS | 0.661 ± 0.064
LLSCLDILFFFI | 0.609 ± 0.016
LLSGRDAACRGG | 0.663 ± 0.027
LLSLLQLPASAS | 0.605 ± 0.03
LLSLSCLPLHFR | 0.574 ± 0.088
LLSPAPPLPPAP | 0.666 ± 0.057
LLVVSIGSCFFG | 0.572 ± 0.065
LMGGMIRDMVWG | 0.643 ± 0.13
LMRGLYAIPGKF | 0.776 ± 0.019
LMVGFRSFNVKC | 0.618 ± 0.051
LNLRTFATFFRY | 0.635 ± 0.077
LNLTAPPPPHLV | 0.6721 ± 0.0066
LNLWVVYRLLGV | 0.599 ± 0.038
LNPPFICFAWLY | 0.598 ± 0.076
LPAAPPPPPLPP | 0.742 ± 0.042
LPASPSIAPPPT | 0.636 ± 0.06

Sequence | protein stability index
LPATLPPPPAPP | 0.705 ± 0.036
LPAWSYPSGWLL | 0.718 ± 0.044
LPCCYVWFFLSL | 0.499 ± 0.023
LPCRRPTPPFPQ | 0.752 ± 0.024
LPCSTLPWAPLT | 0.565 ± 0.023
LPFLVSPPLFRT | 0.664 ± 0.063
LPFPLGDSRGSC | 0.697 ± 0.011
LPFPPPIIATPP | 0.665 ± 0.13
LPFPSPSPPFPF | 0.63 ± 0.094
LPGAEASRCTST | 0.657 ± 0.041
LPGKVGNAPFDQ | 0.6913 ± 0.0062
LPHPPPLPTPPP | 0.739 ± 0.13
LPHVALFLLPAL | 0.638 ± 0.0064
LPLLALLDVPLP | 0.683 ± 0.018
LPLPHPRLPPRP | 0.684 ± 0.049
LPLPTSPHPRPA | 0.61 ± 0.046
LPLRAHPTISFP | 0.751 ± 0.05
LPNTWLTSLIHQ | 0.701 ± 0.33
LPPAPPLPPPPT | 0.683 ± 0.044
LPPARRHPSVYR | 0.669 ± 0.064
LPPHPPPCPPLL | 0.733 ± 0.088
LPPLAPASHHLC | 0.493 ± 0.016
LPPLAYALLPPL | 0.571 ± 0.028
LPPLPLPPAPSA | 0.621 ± 0.042
LPPLPPLPPPPH | 0.686 ± 0.076
LPPLPPPPLLFP | 0.674 ± 0.002

Sequence | protein stability index
LPPPAPSPAPPH | 0.593 ± 0.12
LPPPGSSPRATS | 0.718 ± 0.06
LPPPLPPLLPLP | 0.675 ± 0.014
LPPPLPVRSPLF | 0.68 ± 0.012
LPPPPIAPPLTP | 0.689 ± 0.063
LPPPPRPPLPSP | 0.737 ± 0.068
LPPPSPSPLFPP | 0.669 ± 0.052
LPPPYSHTPPPR | 0.581 ± 0.031
LPPQRPSQYLLH | 0.786 ± 0.11
LPPRPRPLPPSP | 0.589 ± 0.0077
LPPRSRHPSPYA | 0.654 ± 0.016
LPPSPHPPLPHL | 0.886 ± 0.011
LPPSPLALVSSS | 0.637 ± 0.021
LPPTPPLPRSLP | 0.716 ± 0.066
LPPTSPPPSSPP | 0.7007 ± 0.0041
LPRAAISRKFAT | 0.63 ± 0.037
LPRLPVSPLPLP | 0.681 ± 0.057
LPRPLTIKQVAG | 0.56 ± 0.021
LPRPPPTSSTPL | 0.784 ± 0.16
LPRRDPGPSKEP | 0.66644 ± 0.00038
LPSGVPPPPPLP | 0.695 ± 0.063
LPSLPPRTSPPS | 0.761 ± 0.027
LPSLRFLFPLVP | 0.671 ± 0.036
LPSLSPPPSLPL | 0.763 ± 0.042
LPSPLPPPAWTP | 0.735 ± 0.029
LPSPLPPPPPAH | 0.707 ± 0.0082

Sequence | protein stability index
LPSPPPPRSLLP | 0.6657 ± 0.0016
LPSPPPRPPHHR | 0.672 ± 0.025
LPSPTTPRSPPP | 0.729 ± 0.1
LPSPYPMPPPLP | 0.736 ± 0.018
LPSSLFLCSLFC | 0.655 ± 0.026
LPVLPPLSPSPF | 0.665 ± 0.011
LPVPLAAFTTLH | 0.711 ± 0.084
LPVRLPVSGSSS | 0.8296 ± 0.0057
LQAALVFPRSSL | 0.7225 ± 0.00052
LQPLPPYHSIQL | 0.703 ± 0.012
LQRPDHPTPTPP | 0.712 ± 0.017
LQSLRSEVIHSL | 0.651 ± 0.095
LQTLDVFTTMKL | 0.58 ± 0.045
LRAWWTPRRGRW | 0.769 ± 0.052
LRCLFAWVCECG | 0.635 ± 0.083
LRCLLAHIAGRG | 0.67065 ± 0.00044
LRCSKRNKSMGQ | 0.648 ± 0.048
LRECRSWGGAAG | 0.653 ± 0.029
LRFRTNYFFSRV | 0.665 ± 0.063
LRGFGLGLRFFF | 0.65 ± 0.013
LRGGGKRREVMG | 0.702 ± 0.099
LRGSCFSLWLVF | 0.526 ± 0.031
LRGVGAGPEDVG | 0.694 ± 0.017
LRHVARCARGGA | 0.647 ± 0.095
LRKCVKAECKSQ | 0.684 ± 0.037
LRLCSLSLPSLP | 0.704 ± 0.026

Sequence | protein stability index
LRLGRDLMGEGV | 0.661 ± 0.072
LRLLLLVLPTCF | 0.527 ± 0.02
LRPILLSWFRKS | 0.61 ± 0.039
LRPLPPPAPCKF | 0.774 ± 0.04
LRPLPSPPPSLH | 0.603 ± 0.0066
LRPRRCWNQWDM | 0.675 ± 0.048
LRQALGRSEEPQ | 0.6728 ± 0.0065
LRRKTIEVSGLA | 0.573 ± 0.026
LRRLSTGTLSIL | 0.724 ± 0.057
LRRMQGTGCPLP | 0.643 ± 0.035
LRSARPALLCTP | 0.678 ± 0.037
LRSGSLVSLPPL | 0.747 ± 0.1
LRTPNIYLSFSP | 0.666 ± 0.1
LRTVSPPSASPP | 0.689 ± 0.014
LRVVCVVGQRSL | 0.554 ± 0.0094
LSDSSDSTLGAI | 0.667 ± 0.029
LSFGPISGTPFR | 0.661 ± 0.048
LSGLFMAARIFI | 0.627 ± 0.06
LSGNLLLSSLLQ | 0.654 ± 0.049
LSGVRFDSVFEH | 0.729 ± 0.016
